B1: MBP‐CCDC68‐Full length (FL) (natural protein, human (cDNA from HEK293T cells), UniProt Q9H2F9 1-335, looked up)
chain: MTTVTVTTEIPPRDKMEDNSALYESTSAHIIEETEYVKKIRTTLQKIRTQMFKDEIRHDSTNHKLDAKHCGNLQQGSDSEMDPSCCSLDLLMKKIKGKDLQLLEMNKENEVLKIKLQASREAGAAALRNVAQRLFENYQTQSEEVRKKQEDSKQLLQVNKLEKEQKLKQHVENLNQVAEKLEEKHSQITELENLVQRMEKEKRTLLERKLSLENKLLQLKSSATYGKSCQDLQREISILQEQISHLQFVIHSQHQNLRSVIQEMEGLKNNLKEQDKRIENLREKVNILEAQNKELKTQVALSSETPRTKVSKAVSTSELKTEGVSPYLMLIRLRK
notes: CCDC68, full-length cDNA amplified from HEK293T cell cDNA; Vector pCold‐MBP; also called MBP‐CCDC68‐FL; source: E. coli BL21, purified (Amylose Beads, eluted with maltose)
B2: Purified CCDC68 (recombinant, from bacteria) (natural protein, human (cDNA from HEK293T cells), UniProt Q9H2F9 1-335, looked up)
chain: B1 chain
notes: CCDC68, full-length cDNA amplified from HEK293T cell cDNA; The legend names no limits; also called recombinant CCDC68; source: E. coli BL21, purified (eluted by cleaving the tag with PreScission protease)

Legend:
[1] = target: T1, GST‐CDC20 (human (cDNA from HEK293T cells), UniProt Q12834 1-499); experiment: pull-down; purified MBP, MBP‐CCDC68‐FL or MBP‐CCDC68‐Δ280–300 incubated with GST‐CDC20; Coomassie staining and immunoblot; settings: both partners purified
T1 construct: CDC20, full-length cDNA amplified from HEK293T cell cDNA; The legend names no limits; source: E. coli BL21, purified (Glutathione Sepharose 4B)
T1 sequence (Q12834 whole entry): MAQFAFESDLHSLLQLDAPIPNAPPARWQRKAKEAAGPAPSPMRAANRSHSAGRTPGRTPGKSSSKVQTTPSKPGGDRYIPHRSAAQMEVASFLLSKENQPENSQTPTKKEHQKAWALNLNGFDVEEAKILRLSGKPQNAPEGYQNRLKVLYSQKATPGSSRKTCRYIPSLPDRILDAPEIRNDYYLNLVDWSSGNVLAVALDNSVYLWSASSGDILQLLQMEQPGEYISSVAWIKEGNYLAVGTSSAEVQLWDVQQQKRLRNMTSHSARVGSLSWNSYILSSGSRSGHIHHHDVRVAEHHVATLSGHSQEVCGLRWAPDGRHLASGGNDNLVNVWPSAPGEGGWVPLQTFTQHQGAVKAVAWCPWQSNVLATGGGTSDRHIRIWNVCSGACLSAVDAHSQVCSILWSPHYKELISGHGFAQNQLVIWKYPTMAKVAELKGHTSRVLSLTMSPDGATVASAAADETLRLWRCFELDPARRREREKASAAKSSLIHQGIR

[2] = target: T1, GST‐CDC20; experiment: pull-down; purified CCDC68 (50 nM) incubated with GST or the GST fusion protein; Coomassie staining and immunoblot; settings: both partners purified

Binder	binding result [1]	binding result [2]
B1	binds	–
B2	–	binds
